“Also recorded” adds a separate entry of the source.
Columns and labels:
HAdV species E = test: Infection assay (hexon staining), HAdV species E; type: cell-based, human adenovirus; details: 15 µM HD5, A549 cells, hexon staining at ~48 h, vs. no defensin
Protocol: To determine whether sensitivity to α-defensins is a general property of HAdVs, serotypes representative of HAdV species A–F were tested for infectivity in the presence of 15 µM HD5 or HNP1 (Figure 1). Wild type HAdVs rather than vectors were used for these studies, and infectivity was assessed by staining for hexon production. […] These studies indicate that sensitivity to α-defensins is species specific. In addition, particular HAdV serotypes are not equally sensitive to all defensins, indicating defensin sequence specificity as well.
Figure 1 Sensitivity to neutralization by alpha-defensins is AdV species specific. HAdVs were incubated with 15 µM HD5 (A) or HNP1 (B) and assessed for infectivity on A549 cells. Data are the mean of the percent infectivity compared to control cells infected with each virus in the absence of defensin for at least three independent experiments ± SD. The upper limit for quantification of this assay is 200%. […]
Prior to use in this assay, each virus stock was titrated on A549 cells. […] In parallel, wells were infected with two-fold serial dilutions of each virus to establish a standard curve for quantification with an upper limit of 200%. […] Total well fluorescence above background was quantified with ImageJ software. For each virus, samples were quantified by nonlinear regression against the standard curve using Prism software (GraphPad Software, Inc., La Jolla, CA).

[1] = tested on: binding of HAdV-5 to A549 cells (CAR receptor); test: Fiber knob competition assay: binding of labeled HAdV-5 to cells; type: cell-based, human
Protocol: Figure 3 HD5 antiviral activity is structure dependent. A) Ribbon representation of HD5 (PDB 1ZMP). Three disulfide bonds are numbered, and the two residues comprising the conserved salt bridge (R6 and E14) are indicated. B) Ad5.eGFP was incubated with 15 µM of each of the indicated defensins. HD5-Abu is HD5 with the six cysteines replaced with L-α-aminobutyric acid. Data are the mean percent of eGFP positive cells compared to control cells infected in the absence of defensin for at least three independent experiments ± SD. C) Binding of Alexa Fluor 488-labeled HAdV-5 to cells was assessed after incubation with or without 20 µM HD5 or HD5-Abu and in competition with 100 nM 5FK or 16 FK. Data are the mean fold increase in geometric mean fluorescence compared to cells alone and are of at least 10,000 cells from each of three independent experiments ± SD.
In order to determine the receptor-dependence of this effect, we pre-incubated cells with recombinant fiber knob from HAdV-5 (5FK) to block receptor (CAR) interactions and measured cell binding of fluorescently labeled HAdV-5 that was pre-incubated with or without HD5 or HD5-Abu (Figure 3C). Cells incubated with fiber knob from HAdV-16 (16FK), which binds CD46, served as a control. We observed that virus binding to cells was reduced 5.2-fold in the presence of 5FK compared to 16FK. […]

B1: HD5: human alpha-defensin; synthetic, obtained from Peptides International; three disulfide bonds (PDB 1ZMP) (peptide, UniProt Q01523 20-94, looked up)
Defensin alpha 5: ESLQERADEATTQKQSGEDNQDLAISFAGNGLSALRTSGSQARATCYCRTGRCATRESLSGVCEISGRLYRLCCR
modifications: Defensin-5
B1 was tested. Which “sensitivity to neutralization (infectivity)” value (HAdV species E) did it give?
The value was “sensitive”.

And the “interaction with CAR receptor in presence of HD5” value ([1]; 20 µM HD5, competition with 5FK)?
Its value is “does not completely block the interaction with CAR receptor; also recorded: capacity of fiber to bind to CAR was not compromised by HD5 binding”.

And the “effect on virus binding to cells” value ([1]; virus pre-incubated with 20 µM HD5 or HD5-Abu, Alexa Fluor 488, fold increase in geometric mean fluorescence, three independent experiments)?
Its value is “increased virus binding to cells; also recorded: enhanced by HD5”.
